Test results from the supplement of paper PMC6379048.

Experiments:
Test in all cases: EC50 of free RNA motif oligo competing protein binding to immobilised probe
CSTF2T = target: T1, CSTF2T (UniProt Q9H0L4)
T1 sequence: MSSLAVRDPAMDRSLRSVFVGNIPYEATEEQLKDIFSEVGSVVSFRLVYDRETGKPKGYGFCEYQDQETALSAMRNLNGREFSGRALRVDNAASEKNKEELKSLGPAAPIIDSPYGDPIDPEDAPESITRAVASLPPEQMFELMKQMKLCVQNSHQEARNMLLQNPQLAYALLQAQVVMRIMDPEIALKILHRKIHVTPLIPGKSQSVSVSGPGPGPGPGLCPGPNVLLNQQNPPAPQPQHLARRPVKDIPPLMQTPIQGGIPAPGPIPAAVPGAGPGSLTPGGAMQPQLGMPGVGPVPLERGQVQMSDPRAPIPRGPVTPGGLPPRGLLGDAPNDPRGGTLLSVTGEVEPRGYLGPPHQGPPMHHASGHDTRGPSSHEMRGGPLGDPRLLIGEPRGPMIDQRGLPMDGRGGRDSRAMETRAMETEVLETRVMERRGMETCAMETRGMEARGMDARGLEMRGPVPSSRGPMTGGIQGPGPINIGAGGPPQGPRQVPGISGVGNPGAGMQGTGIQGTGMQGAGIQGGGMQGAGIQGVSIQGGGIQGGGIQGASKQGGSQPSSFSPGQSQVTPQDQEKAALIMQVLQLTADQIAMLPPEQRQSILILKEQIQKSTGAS
In short: (§1)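 Free RNA oligos (0 nM to 30 μM) were pre-incubated with HEK293-FT lysate (2.5 mg protein/well) for 1 h at 4°C, followed by 30 min at 4°C with the same 5′-amino-C6 oligos coupled to NHS-Sepharose beads. Bound proteins were quantified by label-free LC-MS/MS and normalised to the control. EC50 was derived from a four-parameter log-logistic fit, and Kd was obtained by multiplying EC50 by a protein-dependent depletion factor.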

ERAL1 = target: T2, ERAL1 (UniProt O75616)
T2 sequence: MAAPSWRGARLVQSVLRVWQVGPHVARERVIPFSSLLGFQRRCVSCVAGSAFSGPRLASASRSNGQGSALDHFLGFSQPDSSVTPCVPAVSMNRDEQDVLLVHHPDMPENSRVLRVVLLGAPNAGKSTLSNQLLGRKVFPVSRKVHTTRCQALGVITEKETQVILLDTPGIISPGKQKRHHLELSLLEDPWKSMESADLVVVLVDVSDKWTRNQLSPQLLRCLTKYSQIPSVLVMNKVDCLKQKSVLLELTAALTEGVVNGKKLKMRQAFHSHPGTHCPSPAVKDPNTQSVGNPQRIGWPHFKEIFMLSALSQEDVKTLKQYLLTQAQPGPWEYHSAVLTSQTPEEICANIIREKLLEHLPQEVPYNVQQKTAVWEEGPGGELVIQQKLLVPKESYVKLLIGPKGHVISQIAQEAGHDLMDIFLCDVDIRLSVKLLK
In short: as §1

CPSF4 = CPSF4 (UniProt O95639)
In short: as §1

CSNK2A1 = CSNK2A1 (UniProt P68400)
In short: as §1

TUBB2A = TUBB2A (UniProt Q13885)
In short: as §1

YTHDC2 = target: T3, YTHDC2 (UniProt Q9H6S0)
T3 sequence: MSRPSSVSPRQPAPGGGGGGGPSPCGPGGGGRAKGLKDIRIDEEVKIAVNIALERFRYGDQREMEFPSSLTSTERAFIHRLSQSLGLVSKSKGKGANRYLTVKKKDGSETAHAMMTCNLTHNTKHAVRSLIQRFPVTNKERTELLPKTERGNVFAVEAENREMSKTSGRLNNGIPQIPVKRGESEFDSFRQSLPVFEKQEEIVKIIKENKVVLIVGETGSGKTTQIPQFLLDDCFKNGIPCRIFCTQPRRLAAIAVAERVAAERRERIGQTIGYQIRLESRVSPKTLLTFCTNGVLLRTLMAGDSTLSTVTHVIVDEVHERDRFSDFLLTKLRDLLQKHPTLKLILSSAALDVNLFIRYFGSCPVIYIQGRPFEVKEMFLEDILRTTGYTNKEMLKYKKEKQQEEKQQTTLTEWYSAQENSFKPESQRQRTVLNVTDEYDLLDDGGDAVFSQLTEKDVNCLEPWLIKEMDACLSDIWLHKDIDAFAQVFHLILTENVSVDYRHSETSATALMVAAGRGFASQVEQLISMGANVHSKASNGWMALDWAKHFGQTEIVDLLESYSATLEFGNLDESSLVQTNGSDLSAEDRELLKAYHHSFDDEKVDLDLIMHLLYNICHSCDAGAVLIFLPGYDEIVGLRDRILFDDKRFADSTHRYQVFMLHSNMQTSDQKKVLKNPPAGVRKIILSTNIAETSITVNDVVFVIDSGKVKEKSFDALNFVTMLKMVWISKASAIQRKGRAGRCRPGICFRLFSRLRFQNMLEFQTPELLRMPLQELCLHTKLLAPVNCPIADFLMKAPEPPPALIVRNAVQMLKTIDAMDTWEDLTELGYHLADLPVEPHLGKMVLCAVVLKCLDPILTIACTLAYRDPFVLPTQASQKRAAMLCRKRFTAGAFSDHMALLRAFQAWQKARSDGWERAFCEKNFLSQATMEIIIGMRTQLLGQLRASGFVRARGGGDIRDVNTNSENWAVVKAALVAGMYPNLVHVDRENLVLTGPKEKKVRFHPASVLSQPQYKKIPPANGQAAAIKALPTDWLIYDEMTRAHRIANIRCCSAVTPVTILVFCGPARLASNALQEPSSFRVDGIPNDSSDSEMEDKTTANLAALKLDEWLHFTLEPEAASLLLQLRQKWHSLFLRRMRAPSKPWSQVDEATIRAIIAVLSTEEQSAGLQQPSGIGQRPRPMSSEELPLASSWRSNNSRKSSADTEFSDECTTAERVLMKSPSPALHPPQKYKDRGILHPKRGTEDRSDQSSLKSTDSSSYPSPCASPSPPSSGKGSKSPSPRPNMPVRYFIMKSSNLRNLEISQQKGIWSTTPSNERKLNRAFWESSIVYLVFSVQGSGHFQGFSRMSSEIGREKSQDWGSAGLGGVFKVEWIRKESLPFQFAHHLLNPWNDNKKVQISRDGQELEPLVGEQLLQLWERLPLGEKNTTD
In short: as §1

TUBB2A, sequence (Q13885 whole entry): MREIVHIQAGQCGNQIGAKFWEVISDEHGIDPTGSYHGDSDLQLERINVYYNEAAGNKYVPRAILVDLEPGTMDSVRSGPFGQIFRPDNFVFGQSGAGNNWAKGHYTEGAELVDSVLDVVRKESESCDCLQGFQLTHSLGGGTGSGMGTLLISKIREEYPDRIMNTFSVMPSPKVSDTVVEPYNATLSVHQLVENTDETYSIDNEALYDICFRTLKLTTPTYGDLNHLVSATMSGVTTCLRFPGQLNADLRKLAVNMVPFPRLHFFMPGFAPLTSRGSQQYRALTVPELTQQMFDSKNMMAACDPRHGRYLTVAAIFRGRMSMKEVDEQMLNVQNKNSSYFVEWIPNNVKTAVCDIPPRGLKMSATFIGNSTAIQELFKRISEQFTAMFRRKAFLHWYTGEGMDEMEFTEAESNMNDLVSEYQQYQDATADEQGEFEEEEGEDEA
CSNK2A1, sequence (P68400 whole entry, looked up): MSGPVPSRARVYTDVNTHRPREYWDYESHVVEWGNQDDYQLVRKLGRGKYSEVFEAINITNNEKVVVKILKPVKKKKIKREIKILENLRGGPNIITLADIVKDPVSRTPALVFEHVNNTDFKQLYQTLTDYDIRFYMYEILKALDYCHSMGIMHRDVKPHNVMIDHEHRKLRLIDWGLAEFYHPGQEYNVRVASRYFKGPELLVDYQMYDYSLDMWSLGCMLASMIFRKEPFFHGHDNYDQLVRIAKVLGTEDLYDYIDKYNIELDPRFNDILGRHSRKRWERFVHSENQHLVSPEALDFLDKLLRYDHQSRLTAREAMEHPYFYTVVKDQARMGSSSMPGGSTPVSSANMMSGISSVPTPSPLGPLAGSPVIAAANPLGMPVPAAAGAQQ
CPSF4, sequence (O95639 whole entry): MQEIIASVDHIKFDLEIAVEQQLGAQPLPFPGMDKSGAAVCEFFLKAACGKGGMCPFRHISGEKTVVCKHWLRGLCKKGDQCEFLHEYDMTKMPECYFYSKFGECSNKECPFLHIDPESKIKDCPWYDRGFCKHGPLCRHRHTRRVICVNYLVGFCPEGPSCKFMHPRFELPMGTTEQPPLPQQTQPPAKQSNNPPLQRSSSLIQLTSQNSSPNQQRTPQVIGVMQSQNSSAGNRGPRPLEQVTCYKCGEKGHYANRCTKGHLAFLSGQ

## UAUUUAU
CSTF2T
  EC50: 357 nM
ERAL1
  EC50: 27.8 nM

## AAUAAA
CPSF4
  EC50: 55.5 nM
CSNK2A1
  EC50: 124 nM
TUBB2A
  EC50: 1090 nM

## CUGUCCU
YTHDC2
  EC50: 2240 nM
